Usually Kd stands for the constant that tells how readily two partners part at equilibrium. Higher therefore signals a looser complex.

For data set [1], the system named is PRC2 core (EZH2-EED-SUZ12-RBBP4) (Homo sapiens), Q15910-2+O75530+Q15022+Q09028. Kind of data set: EMSA. The note with it: 50 mM Tris-HCl pH 7.5 (25 C), 100 mM KCl, 2 mM 2-mercaptoethanol, 0.1 mg/mL BSA, 0.05% NP-40; FA at 30 C; nucleosome EMSA with 5% glycerol at 4 C (+5 ng/uL …). (In general: In EMSA bound probe runs differently from free probe, usually more slowly.)

Data set [2] deals with PRC2-PALI1 PIR (Homo sapiens), Q15910-2+O75530+Q15022+Q09028+Q96JN0-3. Kind of data set: EMSA. To be noted: 50 mM Tris-HCl pH 7.5 (25 C), 100 mM KCl, 2 mM 2-mercaptoethanol, 0.1 mg/mL BSA, 0.05% NP-40; FA at 30 C; nucleosome EMSA with 5% glycerol at 4 C (+5 ng/uL …).
The test system of data set [3] is PRC2-PALI1 PIR-long (Homo sapiens), Q15910-2+O75530+Q15022+Q09028+Q96JN0-3. The data set is described as follows: EMSA. To be noted: 50 mM Tris-HCl pH 7.5 (25 C), 100 mM KCl, 2 mM 2-mercaptoethanol, 0.1 mg/mL BSA, 0.05% NP-40; FA at 30 C; nucleosome EMSA with 5% glycerol at 4 C (+5 ng/uL …).
Data set [4] has as its target EED (amino acids 40-441) (human) (UniProt O75530). The data set is described as follows: fluorescence polarisation; fluorescence anisotropy displacement titration: 2-fold serial dilutions of unlabelled peptide with 10 µM EED and 40 nM 5-FAM labelled JARID2-K116me3 peptide; same buffer, 30 °C; Kd of the unlabelled peptide from a fit.

PRC2 core (EZH2-EED-SUZ12-RBBP4) (Homo sapiens), Q15910-2+O75530+Q15022+Q09028, sequence (Q15910 other isoform, or with tags, fused parts or gaps, chain 1 of 4): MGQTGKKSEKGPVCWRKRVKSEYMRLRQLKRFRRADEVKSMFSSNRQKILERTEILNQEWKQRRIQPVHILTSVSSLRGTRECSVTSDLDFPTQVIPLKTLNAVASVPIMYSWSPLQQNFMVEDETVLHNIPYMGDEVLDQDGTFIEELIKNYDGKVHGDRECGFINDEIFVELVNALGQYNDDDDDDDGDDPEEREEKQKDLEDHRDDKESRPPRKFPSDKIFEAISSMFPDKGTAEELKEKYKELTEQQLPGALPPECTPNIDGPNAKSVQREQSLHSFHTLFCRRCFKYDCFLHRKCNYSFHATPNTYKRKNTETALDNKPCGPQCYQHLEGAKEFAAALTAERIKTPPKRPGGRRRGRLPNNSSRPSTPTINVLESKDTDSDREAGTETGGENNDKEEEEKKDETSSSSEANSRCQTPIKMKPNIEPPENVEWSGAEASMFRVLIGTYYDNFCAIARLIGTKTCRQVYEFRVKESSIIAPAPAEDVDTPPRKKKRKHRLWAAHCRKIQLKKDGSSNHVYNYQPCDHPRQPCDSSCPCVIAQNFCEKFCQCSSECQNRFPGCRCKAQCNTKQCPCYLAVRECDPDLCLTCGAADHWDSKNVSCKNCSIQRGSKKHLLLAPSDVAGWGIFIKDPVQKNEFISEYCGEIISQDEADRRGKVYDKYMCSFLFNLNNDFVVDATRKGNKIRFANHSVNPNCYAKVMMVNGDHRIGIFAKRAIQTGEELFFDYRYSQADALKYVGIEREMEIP
PRC2 core (EZH2-EED-SUZ12-RBBP4) (Homo sapiens), Q15910-2+O75530+Q15022+Q09028, sequence (O75530 whole entry, chain 2 of 4): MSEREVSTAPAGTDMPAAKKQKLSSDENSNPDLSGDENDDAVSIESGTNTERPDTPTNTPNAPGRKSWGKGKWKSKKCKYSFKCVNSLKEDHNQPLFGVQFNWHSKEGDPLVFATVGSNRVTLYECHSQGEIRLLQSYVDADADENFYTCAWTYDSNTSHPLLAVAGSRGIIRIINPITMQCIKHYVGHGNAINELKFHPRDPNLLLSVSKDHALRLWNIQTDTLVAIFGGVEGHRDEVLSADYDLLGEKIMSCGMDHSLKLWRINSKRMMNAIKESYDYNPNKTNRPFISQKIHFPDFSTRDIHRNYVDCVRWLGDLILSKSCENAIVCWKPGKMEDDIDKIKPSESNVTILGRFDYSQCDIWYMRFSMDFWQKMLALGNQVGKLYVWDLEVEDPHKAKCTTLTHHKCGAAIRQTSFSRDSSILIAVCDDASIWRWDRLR
PRC2 core (EZH2-EED-SUZ12-RBBP4) (Homo sapiens), Q15910-2+O75530+Q15022+Q09028, sequence (Q15022 whole entry, chain 3 of 4): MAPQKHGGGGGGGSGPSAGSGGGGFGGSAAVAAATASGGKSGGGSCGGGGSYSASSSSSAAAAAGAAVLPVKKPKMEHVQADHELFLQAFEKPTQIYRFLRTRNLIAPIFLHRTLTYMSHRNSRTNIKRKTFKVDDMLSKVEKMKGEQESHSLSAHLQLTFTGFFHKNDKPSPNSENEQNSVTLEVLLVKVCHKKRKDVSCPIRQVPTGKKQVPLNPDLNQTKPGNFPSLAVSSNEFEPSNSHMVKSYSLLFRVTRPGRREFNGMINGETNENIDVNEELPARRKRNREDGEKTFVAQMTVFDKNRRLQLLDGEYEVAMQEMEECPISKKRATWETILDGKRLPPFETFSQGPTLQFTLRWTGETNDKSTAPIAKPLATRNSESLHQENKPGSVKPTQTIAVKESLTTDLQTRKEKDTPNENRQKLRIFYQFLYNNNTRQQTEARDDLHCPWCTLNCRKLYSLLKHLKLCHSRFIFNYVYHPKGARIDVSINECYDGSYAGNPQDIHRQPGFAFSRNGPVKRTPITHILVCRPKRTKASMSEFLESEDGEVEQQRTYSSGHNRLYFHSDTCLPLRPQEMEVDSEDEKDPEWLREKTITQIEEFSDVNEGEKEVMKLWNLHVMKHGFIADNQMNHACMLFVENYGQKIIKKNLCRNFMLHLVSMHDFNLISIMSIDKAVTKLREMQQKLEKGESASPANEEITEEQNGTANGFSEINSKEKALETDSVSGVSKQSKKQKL
PRC2 core (EZH2-EED-SUZ12-RBBP4) (Homo sapiens), Q15910-2+O75530+Q15022+Q09028, sequence (Q09028 whole entry, chain 4 of 4): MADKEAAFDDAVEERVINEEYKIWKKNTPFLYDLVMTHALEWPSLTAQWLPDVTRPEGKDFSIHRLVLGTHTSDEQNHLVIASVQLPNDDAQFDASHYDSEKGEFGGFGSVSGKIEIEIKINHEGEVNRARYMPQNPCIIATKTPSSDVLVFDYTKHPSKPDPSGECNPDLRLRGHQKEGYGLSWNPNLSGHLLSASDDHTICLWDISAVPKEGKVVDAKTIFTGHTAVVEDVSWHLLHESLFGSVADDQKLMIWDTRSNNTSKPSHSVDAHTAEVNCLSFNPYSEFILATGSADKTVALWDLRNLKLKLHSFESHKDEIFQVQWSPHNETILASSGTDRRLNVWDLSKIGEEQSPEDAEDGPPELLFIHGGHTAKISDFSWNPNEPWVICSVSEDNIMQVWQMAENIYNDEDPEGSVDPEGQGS
EED (amino acids 40-441) (human), sequence (O75530 40-441): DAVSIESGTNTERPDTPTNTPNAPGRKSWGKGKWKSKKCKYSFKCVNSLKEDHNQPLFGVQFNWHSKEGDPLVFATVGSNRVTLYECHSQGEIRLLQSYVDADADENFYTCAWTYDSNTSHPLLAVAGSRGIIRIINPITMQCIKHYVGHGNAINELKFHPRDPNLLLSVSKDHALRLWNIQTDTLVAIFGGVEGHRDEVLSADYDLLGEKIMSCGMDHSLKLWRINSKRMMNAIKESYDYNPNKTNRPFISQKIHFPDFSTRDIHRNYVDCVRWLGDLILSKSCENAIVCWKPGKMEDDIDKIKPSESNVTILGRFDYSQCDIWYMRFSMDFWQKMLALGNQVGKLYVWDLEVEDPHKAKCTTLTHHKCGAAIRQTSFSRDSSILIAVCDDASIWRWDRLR

As to “ACCTCGCGAATGCATCTAGATGATATCGAGAATCCCGGTGCCGAGGCCGCTCAATTGGTCGTAGACAGCTCTAGCACCGCTTAAACGCACGTACGCGCTGTCCCCCGCGTTTTAACCGCCAAGGGGATTACTCCCTAGTCTCCAGGCACGTGTCAGATATATACATCCGATATCGGCGCCCT (double strand) [NCP182, H2A-Cy5]”, the dissociation constant (Kd) in data set [1] is 1410 nM; in data set [2], 17.1 nM.
Turning to “ACCTCGCGAATGCATCTAGATGATATCGAGAATCCCGGTGCCGAGGCCGCTCAATTGGTCGTAGACAGCTCTAGCACCGCTTAAACGCACGTACGCGCTGTCCCCCGCGTTTTAACCGCCAAGGGGATTACTCCCTAGTCTCCAGGCACGTGTCAGATATATACATCCGATATCGGCGCCCT (double strand) [mononucleosome 182 bp, Cy5-DNA]”, the values for the Kd in data set [1] and in data set [3] were 330 nM and 19 nM, respectively.
On to “CTGGAGAATCCCGGTGCCGAGGCCGCTCAATTGGTCGTAGACAGCTCTAGCACCGCTTAAACGCACGTACGCGCTGTCCCCCGCGTTTTAACCGCCAAGGGGATTACTCCCTAGTCTCCAGGCACGTGTCAGATATATACATCCTGT (double strand) [NCP147, H2A-Cy5]”, for which the Kd in data set [1] was 2560 nM; in data set [2], 48.5 nM.
Turning to PALI1-K1214me3 peptide, the fold lower affinity than PALI1-K1219me3 and PALI1-K1241me3 in data set [4] was 4 fold.
In turn, PALI2-K1558me3 peptide returned a dissociation constant (Kd) in data set [4] of 8810 nM.

(Values after article PMC8319299.)
